Test results as given in publication PMC11876735 (Journal of Nuclear Medicine, 2025).

Legend:
Conditions in all cases: in vivo
[1] = parameters: species or system patients
From the text: Safety data were collected as previously described ([5]).

[2] = tested on: midgut neuroendocrine tumors; parameters: species or system patients
Method: The best tumor size change from baseline was assessed in individual lesions with dosimetric estimations. Tumor size was assessed by CT using 2 dimensions (longest [L] and perpendicular [W]) for each tumor per time point. Size change was based on the ratio of tumor area (L × W) at measured times (Tt) to tumor area at baseline (Tbl) and presented as a percentage where percentage tumor size change was ((Tt/Tbl) − 1) × 100%. Positive values indicate size growth, and negative values represent size reduction. Analyses were repeated using 1 dimension (short axis for lymph node lesions and long axis for other lesions). Tumor measurements were performed at 2–7 time points at 12-wk intervals until 72 wk after the first administration. […] However, the timings of dosimetry assessments were not the same for all lesions. Lesion uptake was assumed to be proportional to mass, resulting in a constant absorbed dose at all cycles for an equivalent injected activity. The cumulative absorbed dose was calculated for each target lesion. The correlation between tumor absorbed dose and effect was assessed by plotting the best percentage tumor size change from baseline versus the tumor cumulative absorbed dose.

[3] = tested on: midgut neuroendocrine tumors; parameters: species or system patients; remark: listed apart in the source
From the text: For tumor dosimetry, baseline scintigraphy was used to select tumors that were easily delineated on imaging. Tumor doses were derived using the sphere model of OLINDA/EXM version 1.0 ([14]). The ^177Lu dose factor values were interpolated for each lesion on the basis of its mass.

[4] = parameters: species or system patients; remark: listed apart in the source
Method: Dosimetry assessments were performed using planar scintigraphy methodology routinely used at the time the study was conducted ([9],[10]). […] The geometric mean between the anterior and posterior images at each time point was calculated ([11]). Source organ radioactivity was determined at each time point, and cumulative activities were calculated ([12]). Absorbed dose values in target organs were calculated using time-integrated activity coefficients ([13]) of source organs using OLINDA/EXM version 1.0 (Hermes Medical Solutions) ([14]). A blood-based model was used to derive the cumulative activity in the red marrow and the corresponding absorbed dose ([15],[16]).

C[C@@H](O)[C@H](NC(=O)[C@@H]1CSSC[C@H](NC(=O)[C@@H](Cc2ccccc2)NC(=O)CN2CCN(CC(=O)O)CCN(CC(=O)O)CCN(CC(=O)O)CC2)C(=O)N[C@@H](Cc2ccc(O)cc2)C(=O)N[C@H](Cc2c[nH]c3ccccc23)C(=O)N[C@@H](CCCCN)C(=O)N[C@@H]([C@@H](C)O)C(=O)N1)C(=O)O [^177Lu-DOTATATE, [^177Lu]Lu-DOTATATE, metal not drawn]
Acute hematologic toxicity grade [1]: mild or moderate (grade 1 or 2) | Patients with grade 4 lymphopenia during treatment (acute toxicity) [1]: 20% | Patients with transient grade 3 leukopenia during treatment [1]: 10% | Severe renal toxicity [1]: no severe renal toxicity was observed | Cumulative absorbed dose range of lesions with approximately 50 Gy or greater [2]: 50–789 Gy | Lesions that received a cumulative absorbed dose of approximately 50 Gy or greater [2]: 73% | Absorbed dose for four 7.4 GBq (29.6 GBq in total), Median (range) [3]: 134 (7–2,218) Gy | Absorbed dose per unit activity, Median (range) [3]: 4.5 (0.2–74.9) Gy/GBq | Lesion activity at 160 h [3]: less than 0.01 % of injected activity | Target lesions with cumulative absorbed dose of at least 50 Gy [3]: 73.8% | Target lesions with cumulative absorbed dose of at least 100 Gy [3]: 52.3% | Absorbed dose for four 7.4 GBq (29.6 GBq in total), Mean (SD) ([3]; SD): 224 (313) Gy | Absorbed dose per unit activity, Mean (SD) ([3]; SD): 7.6 (10.6) Gy/GBq | Overall effective half-life of the elimination phase ([4]; human): 21 to 161 h | Cumulative red marrow dose [4]: 3.2 Gy | Kidney doses in three substudy patients [4]: 28-33 Gy | Kidney injected activity profile, peak [4]: around 8%
